Data: patent US20240058464A1 (Fortis Therapeutics, Inc., priority 2021, published 2024)

B1: pegfilgrastim (protein, chains of the INN, looked up)
chain: TPLGPASSLPQSFLLKCLEQVRKIQGDGAALQEKLCATYKLCHPEELVLLGHSLGIPWAPLSSCPSQALQLAGCLSQLHSGLFLYQGLLQALEGISPELGPTLDTLQLDVADFATTIWQQMEELGMAPALQPTQGAMPAFASAFQRRAGGVLVASHLQSFLEVSYRVLRHLAQP
modifications: PEG
B2: filgrastim (protein, chains of the INN, looked up)
chain: MTPLGPASSLPQSFLLKCLEQVRKIQGDGAALQEKLCATYKLCHPEELVLLGHSLGIPWAPLSSCPSQALQLAGCLSQLHSGLFLYQGLLQALEGISPELGPTLDTLQLDVADFATTIWQQMEELGMAPALQPTQGAMPAFASAFQRRAGGVLVASHLQSFLEVSYRVLRHLAQP

System: CD46 expression
Assay: CD46 expression by RNA-sequencing in unpaired pre-treatment and post-treatment tumor biopsies
Type: in vivo, human
Conditions: for CD46 expression diff: Post minus Pre, unpaired biopsies, log2-transformed counts; for CD46 expression Percentage change: post- vs pre-treatment unpaired biopsies; for CD46 expression Post: post-treatment biopsies, unpaired, RNA-seq log2-transformed normalized counts

Row | Molecule | CD46 expression diff (Breast Cancer) | CD46 expression Percentage change (Breast Cancer) [%] | CD46 expression Post (Breast Cancer) | CD46 expression diff (Colorectal Cancer) | CD46 expression Percentage change (Colorectal Cancer) [%] | CD46 expression Post (Colorectal Cancer) | CD46 expression diff (Non-Small Cell Lung Cancer) | CD46 expression Percentage change (Non-Small Cell Lung Cancer) [%] | CD46 expression Post (Non-Small Cell Lung Cancer)
1 | B1 | −0.13 | −2.1 | 6.25 | 0.29 | 4.6 | 6.62 | 0.07 | 1.2 | 6.06
2 | B2 | 0.02 | 0.3 | 6.23 |  |  |  |  |  | 
